One block for each molecule: values may come before it. Bridges are numbered along the chain shown (N, C = ends).
Key:
CD58 (Homo sapiens) = CD58 (Homo sapiens) (UniProt P19256); conditions: cited from earlier work
[1] = biological target: T1, CD58 protein (purified cell-adhesion domain, domain 1) (UniProt P19256 29-215); assay: SPR
T1 sequence (looked up): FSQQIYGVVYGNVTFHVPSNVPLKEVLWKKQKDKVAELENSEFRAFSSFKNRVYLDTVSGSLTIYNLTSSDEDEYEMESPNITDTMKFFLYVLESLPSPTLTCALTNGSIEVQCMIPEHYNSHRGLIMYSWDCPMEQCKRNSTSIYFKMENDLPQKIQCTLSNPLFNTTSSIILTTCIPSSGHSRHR

Molecule: CD2 (from UniProt P06729)
- Kd (CD58 (Homo sapiens)): 10 µM

- Kd [1]: > 500 µM
Molecule: cyclo(CTKSIPPICFPDGR) (disulfide 1-9 (inferred)) [sunflower trypsin inhibitor SFTI-1]

- koff [1]: 0.00329 s⁻¹
- kon [1]: 224 M⁻¹ s⁻¹
B1: SFTI-a (peptide)
peptide: cyclo(CKASAPPSCYDGDD)
modifications: disulfide 1-9
SMILES: C[C@@H]1NC(=O)[C@H](CCCCN)NC(=O)[C@@H]2CSSC[C@H](NC(=O)[C@H](CO)NC(=O)[C@@H]3CCCN3C(=O)[C@@H]3CCCN3C(=O)[C@H](C)NC(=O)[C@H](CO)NC1=O)C(=O)N[C@@H](Cc1ccc(O)cc1)C(=O)N[C@@H](CC(=O)O)C(=O)NCC(=O)N[C@@H](CC(=O)O)C(=O)N[C@@H](CC(=O)O)C(=O)N2
